Literature values as cited in PMC5337525.

Biological target: calmodulin (UniProt P0DP23)

Kd: 7 µM
Substance: β-arrestin 1 (from UniProt P17870)
